The target in this assay is lrp6_human LRP6 (UniProt O75581).
UniProt O75581, sequence (O75581 whole entry): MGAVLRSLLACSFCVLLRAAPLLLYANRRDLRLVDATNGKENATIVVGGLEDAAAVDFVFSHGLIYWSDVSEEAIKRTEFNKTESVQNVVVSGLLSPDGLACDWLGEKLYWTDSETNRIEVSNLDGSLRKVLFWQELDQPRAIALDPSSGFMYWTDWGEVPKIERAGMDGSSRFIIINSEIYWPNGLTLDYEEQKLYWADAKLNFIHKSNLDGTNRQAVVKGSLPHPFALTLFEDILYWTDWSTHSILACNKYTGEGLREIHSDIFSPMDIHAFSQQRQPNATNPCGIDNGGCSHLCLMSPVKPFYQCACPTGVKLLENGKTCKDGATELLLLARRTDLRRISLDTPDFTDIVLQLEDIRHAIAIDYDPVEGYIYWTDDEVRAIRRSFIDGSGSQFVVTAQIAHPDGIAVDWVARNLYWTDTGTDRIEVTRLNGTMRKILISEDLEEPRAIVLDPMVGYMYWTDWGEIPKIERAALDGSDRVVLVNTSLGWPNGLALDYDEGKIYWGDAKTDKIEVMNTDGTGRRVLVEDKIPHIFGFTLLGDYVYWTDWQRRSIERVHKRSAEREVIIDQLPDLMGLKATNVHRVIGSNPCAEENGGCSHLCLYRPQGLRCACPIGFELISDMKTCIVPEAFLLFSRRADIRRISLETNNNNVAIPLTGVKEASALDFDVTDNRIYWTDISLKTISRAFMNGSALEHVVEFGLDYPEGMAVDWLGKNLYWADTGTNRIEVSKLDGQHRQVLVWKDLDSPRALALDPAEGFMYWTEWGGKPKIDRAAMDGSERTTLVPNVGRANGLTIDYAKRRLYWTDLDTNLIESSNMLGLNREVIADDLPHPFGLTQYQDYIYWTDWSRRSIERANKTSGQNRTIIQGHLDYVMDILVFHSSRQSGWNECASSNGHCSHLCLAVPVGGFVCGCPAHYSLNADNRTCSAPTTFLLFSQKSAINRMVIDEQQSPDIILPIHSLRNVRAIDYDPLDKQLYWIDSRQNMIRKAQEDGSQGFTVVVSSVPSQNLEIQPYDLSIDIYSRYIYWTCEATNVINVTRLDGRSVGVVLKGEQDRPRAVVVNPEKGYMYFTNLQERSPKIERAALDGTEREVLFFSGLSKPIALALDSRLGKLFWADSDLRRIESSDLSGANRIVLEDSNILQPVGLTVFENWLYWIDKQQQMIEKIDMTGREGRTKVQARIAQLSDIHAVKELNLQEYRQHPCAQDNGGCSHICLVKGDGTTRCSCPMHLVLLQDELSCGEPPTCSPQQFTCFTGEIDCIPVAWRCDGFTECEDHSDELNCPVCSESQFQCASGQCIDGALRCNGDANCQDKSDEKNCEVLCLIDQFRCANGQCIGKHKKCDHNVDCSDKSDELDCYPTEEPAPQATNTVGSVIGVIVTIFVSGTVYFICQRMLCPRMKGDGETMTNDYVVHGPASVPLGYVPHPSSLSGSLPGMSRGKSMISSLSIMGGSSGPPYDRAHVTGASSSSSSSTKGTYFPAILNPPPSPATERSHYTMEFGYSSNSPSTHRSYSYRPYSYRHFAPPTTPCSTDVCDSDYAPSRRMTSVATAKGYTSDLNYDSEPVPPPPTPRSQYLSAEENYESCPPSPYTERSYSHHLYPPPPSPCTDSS

On to “Leucine-rich repeat serine/threonine-protein kinase 2 (Homo sapiens), Q5S007 R1398H”, for which the “effect of a mutation on the interaction” value is reported as “decreasing interaction strength”. Turning to “Leucine-rich repeat serine/threonine-protein kinase 2 (Homo sapiens), Q5S007 R1441G”, the “effect of a mutation on the interaction” value is reported as “decreasing interaction strength”.

For the origin of these results see IntAct's records for PubMed 27013965.
